The results in this text go back to the Immune Epitope Database (IEDB).

Bounds are passed on as bounds.

In test [1] the target is HLA-B*48:01. The experiment in a line: IEDB peptide-MHC binding, purified MHC/direct/fluorescence; filed as Kd, often an IC50 or EC50 that approximates it; ≥ and ≤ were set here for values at or beyond the usual limits of such assays.
In test [2] the target is HLA-B*27:05. The test is described as above. Conditions: source organism: West Nile virus.
The target in test [3] is HLA-B*15:03. The experiment in a line: IEDB peptide-MHC binding, purified MHC/competitive/radioactivity; filed as Kd, often an IC50 or EC50 that approximates it; ≥ and ≤ were set here for values at or beyond the usual limits of such assays.
Test [4] concerns the target HLA-B*58:01. The experiment in a line: IEDB peptide-MHC binding, purified MHC/direct/fluorescence; filed as Kd, often an IC50 or EC50 that approximates it; ≥ and ≤ were set here for values at or beyond the usual limits of such assays.
Test [5] addresses HLA-B*15:17. The test is described as above.
In test [6] the target is HLA-B*57:01. Described as above.
Test [7] deals with HLA-A*32:01. Kind of test: IEDB peptide-MHC binding, purified MHC/competitive/radioactivity; filed as Kd, often an IC50 or EC50 that approximates it; ≥ and ≤ were set here for values at or beyond the usual limits of such assays.
In test [8] the target is HLA-B*15:01. The description is as above.
Test [9] concerns the target HLA-B*08:01. Described as above.
The target in test [10] is HLA-A*30:01. Described as above.
The target of test [11] is HLA-A*02:01. Kind of test: IEDB peptide-MHC binding, purified MHC/competitive/fluorescence; filed as Kd, often an IC50 or EC50 that approximates it; ≥ and ≤ were set here for values at or beyond the usual limits of such assays. Conditions: source organism: Toxoplasma gondii.
For test [12], the target named is HLA-A*02:12. The description is as above. Conditions: source organism: Toxoplasma gondii.
For test [13], the target named is HLA-B*40:01. The experiment in a line: IEDB peptide-MHC binding, purified MHC/competitive/radioactivity; filed as Kd, often an IC50 or EC50 that approximates it; ≥ and ≤ were set here for values at or beyond the usual limits of such assays.
The target of test [14] is HLA-B*45:01. Described as above.
Test [15] concerns the target HLA-B*44:02. The test is described as above.
Test [16] concerns the target HLA-B*18:01. The description is as above.
The target in test [17] is HLA-B*44:03. The test is described as above.
Test [18] deals with HLA-B*40:02. The test is described as above.
In test [19] the target is HLA-A*02:02. The description is as above. Conditions: source organism: Vaccinia virus WR.
In test [20] the target is HLA-A*02:03. The test is described as above. The note with it: source organism: Vaccinia virus WR.
The target of test [21] is HLA-A*02:06. The test is described as above. Conditions: source organism: Vaccinia virus WR.
Test [22] concerns the target HLA-A*02:03. The experiment in a line: IEDB peptide-MHC binding, purified MHC/direct/fluorescence; filed as Kd, often an IC50 or EC50 that approximates it; ≥ and ≤ were set here for values at or beyond the usual limits of such assays. The note with it: source organism: Mycobacterium tuberculosis str. Haarlem.
Test [23] concerns the target HLA-A*69:01. The description is as above. Conditions: source organism: Mycobacterium tuberculosis.
[24] abbreviates: source organism: Bacillus anthracis.
The mark [25] stands for this setting: source organism: Vaccinia virus WR.
The mark [26] stands for this setting: source organism: Mammarenavirus guanaritoense.
Setting [27] is: source organism: SARS coronavirus Tor2.
Setting [28] is: source organism: Giardia lamblia ATCC 50803.
[29] abbreviates: source organism: Camelpox virus CMS.
[30] abbreviates: source organism: Mammarenavirus choriomeningitidis.
Where [31] appears, read: source organism: Mammarenavirus lassaense.

Consider YRLRGEERK, for which the values for the Kd in [1] (source organism: West Nile virus) and in test [2] were ≥ 20000 nM and 883 nM, respectively.

For VQTIVFIWF, the Kd in test [3] (source organism: Vaccinia virus) was determined as 306 nM.

In the case of CSTLPFHTW, the values for the Kd in test [4] (setting [24]), in test [5] (setting [24]) and in test [6] (setting [24]) were 3.8 nM, 1.2 nM and 7.1 nM, respectively.

In the case of SLNECIISF, the Kd in test [3] (setting [25]) came to 66.9 nM.

For WSIYLSLHY, the dissociation constant Kd in test [7] (setting [25]) is ≥ 29000 nM; in [8] (setting [25]), 48.2 nM; in [9] (setting [25]), 2720 nM; in [10] (setting [25]) it was 17000 nM; in test [3] (setting [25]), 8.85 nM.

For TMKERRPIL, the equilibrium dissociation constant (Kd) in test [7] (setting [25]) was determined as 2210 nM; in test [8] (setting [25]), 808 nM; in test [9] (setting [25]) it was 1.83 nM; in test [10] (setting [25]), 4730 nM; in test [3] (setting [25]), 397 nM.

Consider FISRNKNIF, for which the Kd in test [3] (setting [25]) was 4030 nM.

Regarding LLKDRNELF, the Kd stood at 3070 nM in [7] (setting [25]); 1.82 nM in test [8] (setting [25]); 40.6 nM in test [9] (setting [25]); 108 nM in test [10] (setting [25]); 15.7 nM in [3] (setting [25]).

Take RREKRSVAL: the dissociation constant Kd stood at 40.9 nM in [9] (source organism: Dengue virus 2 Jamaica/1409/1983) and 842 nM in test [1] (source organism: Dengue virus).

Consider VLFEVFVVF, for which the Kd in test [7] (setting [25]) is 7.8 nM; in [8] (setting [25]), 2.85 nM; in test [9] (setting [25]) it was 5110 nM; in test [10] (setting [25]), ≥ 24400 nM; in [3] (setting [25]), 4.85 nM.

Consider SMVQILSSL, for which the Kd in [3] (source organism: Vaccinia virus Copenhagen) was ≥ 77200 nM.

Turning to QIVAYFSEF, the Kd in test [7] (setting [25]) is 70.4 nM; in test [8] (setting [25]), 1.38 nM; in [9] (setting [25]) it was 1930 nM; in test [10] (setting [25]) it was 12700 nM; in test [3] (setting [25]), 7.85 nM.

For METMFFIRF, the Kd in test [3] (setting [25]) was found to be 52.6 nM.

As for NLMVNEQAA, the Kd in test [11] is ≥ 20000 nM; in test [12], 18.9 nM.

As to FKVTTRRSI, in test [3] (setting [25]), the Kd stood at 4.57 nM.

In the case of ADSLDFTQV, the Kd in [13] (setting [26]) is ≥ 64900 nM; in test [14] (setting [26]) it was 6120 nM; in test [15] (setting [26]), 12600 nM; in test [16] (setting [26]), ≥ 66500 nM; in test [17] (setting [26]) it was ≥ 33300 nM; in [18] (setting [26]), 5850 nM.

In the case of LSINSSFYF, the dissociation constant Kd was found to be 2960 nM in test [7] (source organism: Variola virus); 1.02 nM in [8] (source organism: Variola virus); 3160 nM in test [9] (source organism: Variola virus); 970 nM in test [10] (source organism: Variola virus); 4.81 nM in test [3] (source organism: Variola virus).

As for KMAVEVGSI, the equilibrium dissociation constant (Kd) in test [19] turned out to be 30.8 nM; in test [20] it was 2.78 nM; in test [21] it was 119 nM; in [3] (setting [25]) it was 335 nM.

Turning to SEMVMCGGSL, the Kd stood at 0.475 nM in test [13] (setting [27]); 16.3 nM in [14] (setting [27]); 2.24 nM in test [15] (setting [27]); 355 nM in test [16] (setting [27]); 12.3 nM in [17] (setting [27]); 1020 nM in [18] (setting [27]).

On to YQSLSPPPF, for which the Kd in test [7] (setting [25]) was 4740 nM; in test [8] (setting [25]), 5050 nM; in [9] (setting [25]), ≥ 33400 nM; in [10] (setting [25]), 0.503 nM; in test [3] (setting [25]) it was 0.0611 nM.

NTWNQITKF: the Kd in test [4] (setting [28]) was 905 nM; in [5] (setting [28]), 76.4 nM; in test [6] (setting [28]), 1110 nM.

As for ISIPRSVGF, the Kd in test [4] (setting [29]) is 30.3 nM; in test [5] (setting [29]), ≤ 1 nM; in test [6] (setting [29]), 85.9 nM.

As to AEIRASANLA, the Kd in test [13] (setting [27]) stood at 202 nM; in test [14] (setting [27]) it was 4.63 nM; in test [15] (setting [27]) it was 80.1 nM; in test [16] (setting [27]) it was 8130 nM; in test [17] (setting [27]), 98.6 nM; in [18] (setting [27]), 2250 nM.

RDLVISDSS: the Kd is ≥ 53400 nM in [13] (setting [26]); ≥ 77700 nM in test [14] (setting [26]); ≥ 77900 nM in [15] (setting [26]); ≥ 77500 nM in [16] (setting [26]); ≥ 35800 nM in test [17] (setting [26]); 2490 nM in [18] (setting [26]).

Regarding KELSPRWYFY, the Kd in test [13] (setting [27]) was determined as 8570 nM; in test [14] (setting [27]), 4230 nM; in test [15] (setting [27]), 9.79 nM; in test [16] (setting [27]), 6750 nM; in test [17] (setting [27]) it was 12.6 nM; in [18] (setting [27]) it was 309 nM.

For ISESRFQSL, the dissociation constant (Kd) worked out at 11100 nM in [7] (setting [25]); 2890 nM in test [8] (setting [25]); 39.6 nM in [9] (setting [25]); 5920 nM in test [10] (setting [25]); 147 nM in test [3] (setting [25]).

As to NDSILSHNF, the dissociation constant (Kd) in test [13] (setting [30]) is ≥ 76100 nM; in [14] (setting [30]) it was ≥ 77700 nM; in test [15] (setting [30]), 182 nM; in test [16] (setting [30]), 423 nM; in test [17] (setting [30]), 11400 nM; in test [18] (setting [30]) it was 5930 nM.

In the case of HMPAARPEL, in test [1] (setting [28]), the Kd is 593 nM.

Consider IEEIMNIVLI, for which the Kd in test [13] (setting [31]) was determined as 1810 nM; in test [14] (setting [31]), 1300 nM; in test [15] (setting [31]) it was 151 nM; in test [16] (setting [31]) it was 3150 nM; in test [17] (setting [31]) it was 445 nM; in test [18] (setting [31]) it was 98.4 nM.

With VLLDSITRL, the Kd is ≤ 1 nM in [22] and 4350 nM in test [23].

As for MVKNNKIQK, the Kd was ≥ 77800 nM in test [7] (setting [25]); 18300 nM in [8] (setting [25]); 17800 nM in test [9] (setting [25]); 11.8 nM in test [10] (setting [25]); 9550 nM in [3] (setting [25]).

FSLGQGVKF yielded a Kd in test [5] (source organism: Shigella flexneri) of 1.9 nM.

A word on the Kd: it is the free concentration of one partner at which half of the binding sites on the other are occupied at equilibrium, for simple one-to-one binding.
